Target: T1, NgR1 (Mus musculus, UniProt Q99PI8)
T1 chain: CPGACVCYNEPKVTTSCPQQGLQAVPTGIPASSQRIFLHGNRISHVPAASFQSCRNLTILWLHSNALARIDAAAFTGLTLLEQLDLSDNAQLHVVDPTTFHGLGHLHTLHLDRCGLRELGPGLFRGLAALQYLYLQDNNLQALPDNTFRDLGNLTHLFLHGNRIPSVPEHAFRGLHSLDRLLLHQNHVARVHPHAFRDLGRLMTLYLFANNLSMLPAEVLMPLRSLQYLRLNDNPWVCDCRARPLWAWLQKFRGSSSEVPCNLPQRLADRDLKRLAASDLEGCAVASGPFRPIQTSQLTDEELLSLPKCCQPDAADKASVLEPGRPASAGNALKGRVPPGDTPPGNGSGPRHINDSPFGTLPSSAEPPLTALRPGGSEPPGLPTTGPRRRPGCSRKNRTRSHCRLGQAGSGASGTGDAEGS
Experiment: AP-fusion cell-surface saturation binding

Kd: ~6.8 nM
B1: LOTUS (Crtac1B) 29-602 (antibody)
chain: SQRAEPMFTAVTNSVLPPDYDSNPTQLNYGVAVTDVDHDGDFEIVVAGYTGPNLVLKYNRAQNRLVNIAVDERSSPYYALRDRQGNAIGVTACDIDGDGREEIYFLNTNNAFSGVATYTDKLFKFRNNRWEDILSDDVNVARGVASLFAGRSVACVDRTGSGRYSIYIANYAYGDVGPDALIEMDPEASDLSRGILALRDVAAEAGVSKYTAGRGVSVGPILSSSASDIFCDNENGPNFLFHNQGNGTFVDTAASAGVDDPHQHGRGVALADFNRDGKVDIVYGNWNGPHRLYLQMSAHGKVRFRDIASPKFSTPSPVRTVIAADFDNDQELEVFFNNIAYRSSSANRLFRVIRREHGDPLIEELNPGDALEPEGRGTGGVVTDFDGDGMLDLILSHGESMAQPLSVFRGNQGFSNNWLRVVPRTRFGAFARGAKVVLYTKKSGAHLRIIDGGSGYLCEMEPVAHFGLGRDEASSVEVTWPDGKMVSRSVASEEMNSVLEILYPQDEDKLQNTAPLECGQGFSQQDNGHCMDTNECIQFPFVCPRDKPVCVNTYGSYRCRTNKRCNRGYEPNED
modifications: alkaline phosphatase fusion of LOTUS

— article PMC3244695 (2012)
